Reference: US20140287471A1, “VARIANT CBH I POLYPEPTIDES WITH REDUCED PRODUCT INHIBITION” (BP CORPORATION NORTN AMERICA INC., priority 2011, published 2014)
Substitutions are numbered along the chain they refer to. Like-named read-outs stand apart in the source and are kept apart here.

Legend:
[1] = 4-MUL cellobiose tolerance/inhibition assay, dose-response IC50 (Example 2); assay type: biochemical; conditions: for 268 +411A Expected IC50: expected IC50 (additive values of single mutations); for 268_+411A Synergistic**↑: measured versus expected additive IC50; for IC50: averaged IC50 from Tables 8-11
Procedure, shortened: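 CBH I variant supernatants (5 μg/mL final, or undiluted if lower) on 0.5 mM 4-MUL in 100 mM MES pH 6 with 25 mM gluconolactone, fluorescence ex/em 365/450 nm. Activity measured at 6–8 cellobiose levels up to 100 mM; IC50 from four-parameter fit, bottom constrained to knockout background.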

[2] = 4-MUL assay, specific activity (Example 2); assay type: biochemical; conditions: for 268— Measured Specific Activity (SA) / 268— Δ SA* (change in specific activity; ratio of variant: WT): 268 single substitution
Procedure, shortened: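 CBH I variant supernatants (5 μg/mL final) hydrolysed 0.5 mM 4-MUL in 100 mM MES pH 6 with 25 mM gluconolactone to block BG, with or without cellobiose. Fluorescence (ex/em 365/450 nm) followed over the first 15 min for initial rates, plus a 1 h endpoint before and after carbonate quench. Specific activity from 4-MU standards and HPLC protein quantification.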

[3] = 268 single substitution, read-out: 268— Measured (merged IC50)
[4] = 411 single substitution, read-out: 411— Measured (merged IC50)

B1: 268Cys+411A (protein, UniProt P62694 18-513, looked up, variant R268C R411A)
Exoglucanase 1: QSACTLQSETHPPLTWQKCSSGGTCTQQTGSVVIDANWRWTHATNSSTNCYDGNTWSSTLCPDNETCAKNCCLDGAAYASTYGVTTSGNSLSIGFVTQSAQKNVGARLYLMASDTTYQEFTLLGNEFSFDVDVSQLPCGLNGALYFVSMDADGGVSKYPTNTAGAKYGTGYCDSQCPRDLKFINGQANVEGWEPSSNNANTGIGGHGSCCSEMDIWEANSISEALTPHPCTTVGQEICEGDGCGGTYSDNCYGGTCDPDGCDWNPYRLGNTSFYGPGSSFTLDTTKKLTVVTQFETSGAINRYYVQNGVTFQQPNAELGSYSGNELNDDYCTAEEAEFGGSSFSDKGGLTQFKKATSGGMVLVMSLWDDYYANMLWLDSTYPTNETSSTPGAVAGSCSTSSGVPAQVESQSPNAKVTFSNIKFGPIGSTGNPSGGNPPGGNRGTTTTRRPATTTGSSPGPTQSHYGQCGGIGYSGPTVCASGTTCQVLNPYYSQCL
268 +411A Expected IC50 ([1]; double mutant 268X+411A): 1560 µM
268_+411A Synergistic**↑ ([1]; double mutant 268X+411A): 14.4
268— +411 A Δ SA* (change in specific activity; ratio of variant: WT) ([2]; double mutant 268X+411A): 0.2

B2: 268Ala (protein, UniProt P62694 18-513, looked up, variant R268A)
Exoglucanase 1: B1 Exoglucanase 1 with C251A, A394R
IC50 [1, 3]: 570 µM
268— Measured Specific Activity (SA) [2]: 2.97 μmol 4 MU/min/mg CBH I
268— Δ SA* (change in specific activity; ratio of variant: WT) [2]: 3.9

B3: 268Pro+411A (protein, UniProt P62694 18-513, looked up, variant R268P R411A)
Exoglucanase 1: B1 Exoglucanase 1 with C251P
IC50 ([1]; double mutant 268X+411A, read-out: 268_+411A Measured (merged IC50)): 8570 µM
268 +411A Expected IC50 ([1]; double mutant 268X+411A): 1700 µM
268_+411A Synergistic**↑ ([1]; double mutant 268X+411A): 5.1
268— +411 A Measured Specific Activity (SA) ([2]; double mutant 268X+411A): 2.16 μmol 4 MU/min/mg CBH I
268— +411 A Δ SA* (change in specific activity; ratio of variant: WT) ([2]; double mutant 268X+411A): 2.8

B4: 411Leu (protein, UniProt P62694 18-513, looked up, variant R411L)
Exoglucanase 1: B1 Exoglucanase 1 with C251R, A394L
IC50 [1, 4]: 6540 µM
411— Δ SA* (change in specific activity; ratio of variant: WT) ([2]; 411 single substitution): 0.2

B5: 268Leu (protein, UniProt P62694 18-513, looked up, variant R268L)
Exoglucanase 1: B1 Exoglucanase 1 with C251L, A394R
IC50 [1, 3]: 450 µM
268— Measured Specific Activity (SA) [2]: 1.83 μmol 4 MU/min/mg CBH I
268— Δ SA* (change in specific activity; ratio of variant: WT) [2]: 2.4

B6: 268Phe (protein, UniProt P62694 18-513, looked up, variant R268F)
Exoglucanase 1: B1 Exoglucanase 1 with C251F, A394R
IC50 [1, 3]: 480 µM
268— Δ SA* (change in specific activity; ratio of variant: WT) [2]: 0.5

B7: 411Val (protein, UniProt P62694 18-513, looked up, variant R411V)
Exoglucanase 1: B1 Exoglucanase 1 with C251R, A394V
IC50 [1, 4]: 3160 µM
411— Measured Specific Activity (SA) ([2]; 411 single substitution): 0.65 μmol 4 MU/min/mg CBH I
411— Δ SA* (change in specific activity; ratio of variant: WT) ([2]; 411 single substitution): 0.9

B8: 268A+411Ile (protein, UniProt P62694 18-513, looked up, variant R268A R411I)
Exoglucanase 1: B1 Exoglucanase 1 with C251A, A394I
IC50 ([1]; double mutant 268A+411X, read-out: 268A+411— Measured (merged IC50)): 32700 µM
268A+411— Δ SA* (change in specific activity; ratio of variant: WT) ([2]; double mutant 268A+411X): 0.5
